The values below come from patent US20240417462A1.

The test addresses TIGIT on PHA-activated human peripheral blood mononuclear cells (PBMC) (human) (UniProt Q495A1). Put plainly: cell-based or functional assay.

TIGIT on PHA-activated human peripheral blood mononuclear cells (PBMC) (human), sequence (Q495A1 22-244): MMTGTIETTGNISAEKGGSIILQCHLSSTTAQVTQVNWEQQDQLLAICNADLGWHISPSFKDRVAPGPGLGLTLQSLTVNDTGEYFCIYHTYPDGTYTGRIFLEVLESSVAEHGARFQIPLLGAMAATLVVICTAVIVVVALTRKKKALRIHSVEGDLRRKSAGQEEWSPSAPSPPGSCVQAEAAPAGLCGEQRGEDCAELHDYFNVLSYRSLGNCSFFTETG

Consider Tiragolumab (antibody), for which the IFNγ release, increase over no antibody came to 16%.
